These are literature values, as cited in US12194157B2, “Carrier for targeted delivery to a host” (Finncure Oy, priority 2020, dated 2025).

The target in this series is ACE2 (Homo sapiens, UniProt Q9BYF1). The following applies: simulation, ref [8].
Chain of ACE2 (Q9BYF1 18-805): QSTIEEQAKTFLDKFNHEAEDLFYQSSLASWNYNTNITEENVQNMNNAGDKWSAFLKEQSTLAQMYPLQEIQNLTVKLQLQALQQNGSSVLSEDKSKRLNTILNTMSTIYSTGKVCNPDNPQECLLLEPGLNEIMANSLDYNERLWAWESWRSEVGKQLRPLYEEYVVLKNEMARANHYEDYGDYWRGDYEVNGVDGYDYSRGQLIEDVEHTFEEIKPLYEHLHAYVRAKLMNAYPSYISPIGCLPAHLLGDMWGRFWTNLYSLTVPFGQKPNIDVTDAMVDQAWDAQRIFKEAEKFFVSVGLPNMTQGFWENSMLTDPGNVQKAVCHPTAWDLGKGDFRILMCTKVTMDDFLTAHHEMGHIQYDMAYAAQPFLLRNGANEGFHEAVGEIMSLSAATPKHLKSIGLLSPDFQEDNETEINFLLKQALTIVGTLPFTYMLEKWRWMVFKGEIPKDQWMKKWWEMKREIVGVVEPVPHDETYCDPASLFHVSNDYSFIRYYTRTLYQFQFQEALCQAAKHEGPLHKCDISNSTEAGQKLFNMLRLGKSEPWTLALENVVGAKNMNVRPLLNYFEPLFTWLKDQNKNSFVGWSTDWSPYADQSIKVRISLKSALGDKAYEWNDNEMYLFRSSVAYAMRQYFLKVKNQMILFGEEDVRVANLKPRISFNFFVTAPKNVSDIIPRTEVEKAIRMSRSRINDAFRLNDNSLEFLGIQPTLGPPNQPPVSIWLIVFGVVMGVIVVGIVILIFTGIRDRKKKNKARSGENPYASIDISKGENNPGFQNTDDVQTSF

Take “YKYNYI (Potential alternative synthetic hexapeptide variant) [alternative synthetic hexapeptide variant from simulation]”: the “binding affinity towards the ACE2 receptor relative to YKYRYL” value is on record as “even stronger binding affinity”.

Regarding “YKYNYL (Potential alternative synthetic hexapeptide variant) [alternative synthetic hexapeptide variant from simulation]”, the “binding affinity towards the ACE2 receptor relative to YKYRYL” value was “even stronger binding affinity”.
